Test results published in patent US20170173105A1, “AUTOASSEMBLING PEPTIDES FOR THE TREATMENT OF PULMONARY LEAKAGE” (3-D MATRIX, LTD., priority 2014, published 2017).

Tests used:
Type in all cases: physicochemical
[1] = pH and appearance of 2.5% peptide solutions after adding 0.1 N NaOH
Description: To adjust the pH level of the peptide solutions by way of example, 0.1 N NaOH was added to 2 mL of 2.5% peptide solutions and their pH and appearance were measured.

[2] = Appearance of 1.5% peptide solutions with various salts at room temperature; conditions: for Appearance: KLD12 solution, room temperature
Description: The effect of salt ionic strength level on the properties of peptide solutions was evaluated to identify optimized salt ionic strength levels for the peptides as described herein. Increasing the salt ionic strength level of PuraMatrix® and other peptides may generally improve its function and mechanical strength for various clinical applications. To adjust the salt ionic strength of the peptide solutions by way of example, various salt buffer solutions including NaCl, KCl, MgCl2, CaCl2 and DPBS (10×) were added to 2 mL of 1.5% peptide solutions.

[3] = Rheological properties of pH adjusted peptide solutions and hydrogels (stress/frequency sweep); conditions: at pH 3.4 (IEIK13 adjusted to 3.7); KLD12 1%, IEIK13 1%, PuraMatrix 1% and 2.5%
Description: Based on the visual observation of the effect of pH level on the properties of the peptide solutions, the effect on the rheological properties of the peptide solutions after adjusting their pH level to 3.4 (PuraMatrix® and KLD12) or 3.7 (IEIK13) was evaluated. If the pH levels of peptide solutions are higher than 3.5 (PuraMatrix® and KLD12) or 3.7 (IEIK13), the peptide solution began phase separation becoming cloudy. The rheological properties of PuraMatrix®, KLD12 and IEIK13 solutions were higher at pH 3.4. The results are shown in FIG. 2 for KLD12 1%, FIG. 3 for IEIK13 1%, and FIGS. 4-5 for PuraMatrix® 1% and 2.5%, respectively. Stress sweep tests were performed at 10 rad/s. Frequency sweep tests were performed at 1 Pa.
Based on the results of the effect on the rheological properties of the peptide solutions after adjusting their pH level to 3.4 (PuraMatrix® and KLD12) or 3.7 (IEIK13), the effect on the rheological properties of the peptide solutions at various pH levels was evaluated. […] The rheological properties of peptides were evaluated at various concentrations using a rheometer (DHR-1, TA Instruments) with 20 mm plates. The results are shown in FIG. 6A for PuraMatrix® 2.5% solution and FIG. 6B for IEIK13 1.5% solution, respectively. Frequency sweep tests were performed from 1 rad/sec to 10 rad/sec at 1 Pa and the storage modulus at 1 rad/sec was selected for data.
Based on the results of the effect on the rheological properties of the peptide solutions after adjusting their pH level, the effect on the rheological properties of the peptide hydrogels at various pH after DMEM treatment was evaluated and compared to the effect on the rheological properties of the peptide solutions at various pH before DMEM treatment. […] The results are shown in FIGS. 7A-7B for PuraMatrix® and FIGS. 8A-8B for IEIK (SEQ ID NO: 5), respectively. Frequency sweep tests were performed from 1 rad/sec to 10 rad/sec at 1 Pa and the storage modulus at 1 rad/sec was selected for data.

[4] = Gelation of peptide solutions on saline buffer treatment (time sweep); conditions: saline buffer (0.15 M of NaCl); IEIK13 1.5%, KLD12 1.5%, PuraMatrix 2.5%
Description: The effect of salt ionic strength level surrounding peptide solution on the properties of peptide solutions was evaluated to identify the possibility of peptide gelation when the peptide solution is placed into the environment where salt ionic strength level is high. […] Without pH effect, the effect of saline treatment on gelation of peptide solutions were evaluated. […] This is because IEIK13 is much more sensitive to salt ionic strength levels. Fast gelation of IEIK13 at the salt ionic strength level similar to body fluid isotonic salt level may generally improve its function and gelation speed for various clinical applications. The results are shown in FIG. 19 for IEIK13, KLD12 and PuraMatrix® solutions. Time sweep tests were performed at 1 rad/sec and at 1 Pa with 20 mm plates and 500 μm gap distance. […]

[5] = 0.1 N NaOH 0 μL/mL added in 2.5% solution, conc. 2.5%
[6] = 0.1 N NaOH 50 μL/mL added in 2.5% solution, conc. 2.38%
[7] = 0.1 N NaOH 100 μL/mL added in 2.5% solution, conc. 2.27%
[8] = 0.1 N NaOH 300 μL/mL added in 2.5% solution, conc. 1.92%
[9] = pH increase up to approximately 3.5 or less with 0.1 N NaOH, 2.5% solutions

## Lys-Leu-Asp-Leu-Lys-Leu-Asp-Leu-Lys-Leu-Asp-Leu (Ac-KLDLKLDLKLDL-NH2) [KLD12]
[1]; [5]
  Appearance: Clear, thick gel
  Peptide solution pH: 2.1
[1]; [6]
  Appearance: Clear, thick gel
  Peptide solution pH: 2.4
[1]; [7]
  Appearance: Clear, thick gel
  Peptide solution pH: 2.6
[1]; 0.1 N NaOH 150 μL/mL added in 2.5% solution, conc. 2.17%
  Peptide solution pH: 2.9
[1]; 0.1 N NaOH 200 μL/mL added in 2.5% solution, conc. 2.08%
  Peptide solution pH: 3.3
[1]; 0.1 N NaOH 225 μL/mL added in 2.5% solution, conc. 2.04%
  Peptide solution pH: 3.6
[1]; 0.1 N NaOH 250 μL/mL added in 2.5% solution, conc. 2.0%
  Peptide solution pH: 4.0
[1]; [8]
  Appearance: Cloudy, brittle gel
  Peptide solution pH: 4.7
[1]; 0.1 N NaOH 350 μL/mL added in 2.5% solution, conc. 1.85%
  Peptide solution pH: 5.2
[1]; last line per peptide, NaOH volume and conc. not given
  Peptide solution pH: 7.0
[1]; [9]
  apparent stiffness on pH increase: increased
  color of solution on pH increase: did not change the clear color
[2]; CaCl2 0 M, ionic strength 0 M, conc. 1.5%
  Appearance: Clear, thick gel
[2]; CaCl2 0.05 M, ionic strength 0.15 M, conc. 1.48%
  Appearance: Clear, thick, stiffer gel
[2]; CaCl2 0.067 M, ionic strength 0.2 M, conc. 1.47%
  Appearance: Clear, thick, stiffer gel
[2]; CaCl2 0.083 M, ionic strength 0.25 M, conc. 1.46%
  Appearance: Clear, thick, stiffer gel
[2]; CaCl2 0.1 M, ionic strength 0.3 M, conc. 1.45%
  Appearance: Clear, thick, stiffer gel
[2]; CaCl2 0.117 M, ionic strength 0.35 M, conc. 1.44%
  Appearance: Clear, thick, stiffer gel
[2]; CaCl2 0.133 M, ionic strength 0.4 M, conc. 1.43%
  Appearance: Slightly cloudy, thick, stiffer gel
[2]; CaCl2 0.15 M, ionic strength 0.45 M, conc. 1.43%
  Appearance: Slightly cloudy, brittle gel
[2]; CaCl2 0.167 M, ionic strength 0.5 M, conc. 1.42%
  Appearance: Cloudy, phase-separated
[2]; KCl 0 M, ionic strength 0 M, conc. 1.5%
  Appearance: Clear, thick gel
[2]; KCl 0.05 M, ionic strength 0.5 M, conc. 1.48%
  Appearance: Clear, thick, stiffer gel
[2]; KCl 0.1 M, ionic strength 0.1 M, conc. 1.45%
  Appearance: Clear, thick, stiffer gel
[2]; KCl 0.15 M, ionic strength 0.15 M, conc. 1.43%
  Appearance: Clear, thick, stiffer gel
[2]; KCl 0.2 M, ionic strength 0.2 M, conc. 1.4%
  Appearance: Clear, thick, stiffer gel
[2]; KCl 0.25 M, ionic strength 0.25 M, conc. 1.38%
  Appearance: Clear, thick, stiffer gel
[2]; KCl 0.3 M, ionic strength 0.3 M, conc. 1.35%
  Appearance: Slightly cloudy, thick, stiffer gel
[2]; KCl 0.35 M, ionic strength 0.35 M, conc. 1.32%
  Appearance: Slightly cloudy, brittle gel
[2]; KCl 0.4 M, ionic strength 0.4 M, conc. 1.3%
  Appearance: Cloudy, phase-separated
[2]; MgCl2 0 M, ionic strength 0 M, conc. 1.5%
  Appearance: Clear, thick gel
[2]; MgCl2 0.05 M, ionic strength 0.15 M, conc. 1.48%
  Appearance: Clear, thick, stiffer gel
[2]; MgCl2 0.067 M, ionic strength 0.2 M, conc. 1.47%
  Appearance: Clear, thick, stiffer gel
[2]; MgCl2 0.083 M, ionic strength 0.25 M, conc. 1.46%
  Appearance: Clear, thick, stiffer gel
[2]; MgCl2 0.1 M, ionic strength 0.3 M, conc. 1.45%
  Appearance: Clear, thick, stiffer gel
[2]; MgCl2 0.117 M, ionic strength 0.35 M, conc. 1.44%
  Appearance: Clear, thick, stiffer gel
[2]; MgCl2 0.133 M, ionic strength 0.4 M, conc. 1.43%
  Appearance: Slightly cloudy, thick, stiffer gel
[2]; MgCl2 0.15 M, ionic strength 0.45 M, conc. 1.43%
  Appearance: Slightly cloudy, brittle gel
[2]; MgCl2 0.167 M, ionic strength 0.5 M, conc. 1.42%
  Appearance: Cloudy, phase-separated
[2]; NaCl 0 M, ionic strength 0 M, conc. 1.5%
  Appearance: Clear, thick gel
[2]; NaCl 0.05 M, ionic strength 0.5 M, conc. 1.48%
  Appearance: Clear, thick, stiffer gel
[2]; NaCl 0.1 M, ionic strength 0.1 M, conc. 1.45%
  Appearance: Clear, thick, stiffer gel
[2]; NaCl 0.15 M, ionic strength 0.15 M, conc. 1.43%
  Appearance: Clear, thick, stiffer gel
[2]; NaCl 0.2 M, ionic strength 0.2 M, conc. 1.4%
  Appearance: Clear, thick, stiffer gel
[2]; NaCl 0.25 M, ionic strength 0.25 M, conc. 1.38%
  Appearance: Clear, thick, stiffer gel
[2]; NaCl 0.3 M, ionic strength 0.3 M, conc. 1.35%
  Appearance: Slightly cloudy, thick, stiffer gel
[2]; NaCl 0.35 M, ionic strength 0.35 M, conc. 1.32%
  Appearance: Slightly cloudy, brittle gel
[2]; NaCl 0.4 M, ionic strength 0.4 M, conc. 1.3%
  Appearance: Cloudy, phase-separated
[2]; up to the ionic strength at which solutions stay clear
  apparent stiffness on salt ionic strength increase: increased
[3]
  rheological properties of solutions after pH adjustment: higher
[4]
  gelation after saline buffer treatment: no or negligible gelation
